Where two headings read alike, the source gives them in different places. Blank lines part the entries; values can stand above or below the binder they belong to.
Experiments:
hLTBR-Fc = biological target: T1, hLTBR-Fc (human, UniProt P36941); assay: direct ELISA on coated protein, IgG1
T1 construct: Fc fusion; member of the panel m9

hDR6-Fc [1] = biological target: T2, hDR6-Fc (human, UniProt O75509); assay: direct ELISA on coated protein, IgG1
T2 construct: Fc fusion; member of the panel m9
T2 sequence (looked up): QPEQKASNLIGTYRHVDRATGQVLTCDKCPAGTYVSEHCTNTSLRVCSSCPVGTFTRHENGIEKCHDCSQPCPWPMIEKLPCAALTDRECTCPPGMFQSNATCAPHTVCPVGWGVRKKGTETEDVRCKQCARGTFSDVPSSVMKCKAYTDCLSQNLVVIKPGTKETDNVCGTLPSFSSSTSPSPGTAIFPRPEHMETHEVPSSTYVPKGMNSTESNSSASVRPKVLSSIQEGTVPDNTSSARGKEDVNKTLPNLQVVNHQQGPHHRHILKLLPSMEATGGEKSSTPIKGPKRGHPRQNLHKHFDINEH

hOX40-Fc = biological target: T3, hOX40-Fc; assay: direct ELISA on coated protein, IgG1
T3 construct: member of the panel m9
T3 chain: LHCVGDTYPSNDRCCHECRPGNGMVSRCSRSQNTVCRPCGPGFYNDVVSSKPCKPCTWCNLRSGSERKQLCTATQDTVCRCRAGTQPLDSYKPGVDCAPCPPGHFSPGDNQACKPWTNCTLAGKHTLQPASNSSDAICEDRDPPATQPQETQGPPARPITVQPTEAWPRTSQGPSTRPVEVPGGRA

hICAM-1-Fc = biological target: T4, hICAM-1-Fc (human, UniProt P05362); assay: direct ELISA on coated protein, IgG1
T4 construct: Fc fusion; member of the panel m9

[2] = biological target: T5, cynomolgus monkey C-KIT-Fc (cynomolgus monkey); assay: HTRF competition vs Tb-h37M IgG1
T5 construct: also called cyno C-KIT-Fc
Experimental: Reagents were added sequentially into 384-well low-volume black plates (Nunc).

[3] = biological target: T5, cynomolgus monkey C-KIT-Fc; assay: direct titration ELISA on coated C-KIT-Fc, IgG1 format
Experimental: Direct titration ELISA for IgG binding to human and cyno C-KIT-Fc proteins.
To coat Greiner Bio-One High bind ELISA plates, target proteins were diluted to 1 μg/ml in carbonate buffer and added at 100 μl per well, at 4° C., o/n. Coated plates were washed 3× with PBS pH7.4, blocked with 1% BSA in PBS (380 μl/well) for 1 hr at RT, then washed 3× with PBS-Tween 20 (PBST). C-KIT antibodies (100 μl/well; diluted in PBST) were then added and then incubated 1 hr at RT. Plates were then washed 3× with PBST and goat anti-human kappa chain-HRP added (100 μl/well) at RT, for 1 hr. Plates were then washed 3× with PBST and twice with PBS before the addition of 100 μl TMB per well. Reactions were stopped by adding 100 μl 2M H₂SO₄/well and OD was read on a plate reader at 450 nm.

hDR6-Fc [4] = biological target: T2, hDR6-Fc; assay: direct ELISA on coated protein, IgG1; remark: listed apart in the source
hVCAM-1 = biological target: T6, hVCAM-1 (human, UniProt P19320); assay: direct ELISA on coated protein, IgG1
T6 construct: purified recombinant protein; member of the panel m9
T6 sequence (looked up): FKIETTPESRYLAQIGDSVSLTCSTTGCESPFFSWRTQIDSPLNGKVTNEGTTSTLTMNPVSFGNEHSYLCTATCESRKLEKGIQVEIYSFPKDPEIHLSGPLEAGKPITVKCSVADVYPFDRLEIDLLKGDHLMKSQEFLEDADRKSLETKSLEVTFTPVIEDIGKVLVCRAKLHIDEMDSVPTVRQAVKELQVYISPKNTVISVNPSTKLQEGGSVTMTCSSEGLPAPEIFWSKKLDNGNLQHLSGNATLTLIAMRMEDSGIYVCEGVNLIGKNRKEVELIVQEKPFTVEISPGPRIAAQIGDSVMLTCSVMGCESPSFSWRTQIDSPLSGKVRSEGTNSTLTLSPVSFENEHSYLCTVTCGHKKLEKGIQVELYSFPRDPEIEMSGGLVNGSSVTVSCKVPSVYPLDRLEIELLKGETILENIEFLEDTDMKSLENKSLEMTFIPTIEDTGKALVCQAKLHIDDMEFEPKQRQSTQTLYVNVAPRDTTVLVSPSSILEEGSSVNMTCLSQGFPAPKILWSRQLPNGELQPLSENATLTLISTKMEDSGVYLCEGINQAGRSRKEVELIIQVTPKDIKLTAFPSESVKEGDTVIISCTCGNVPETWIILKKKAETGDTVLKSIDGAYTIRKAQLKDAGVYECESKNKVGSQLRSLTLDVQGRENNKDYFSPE

hCMET-Fc = biological target: T7, hCMET-Fc (The natural ectodomain is cleaved by furin after residue 307 into disulfide-linked alpha and beta chains. It is given here as one continuous stretch.); assay: direct ELISA on coated protein, IgG1
T7 construct: member of the panel m9
T7 chain: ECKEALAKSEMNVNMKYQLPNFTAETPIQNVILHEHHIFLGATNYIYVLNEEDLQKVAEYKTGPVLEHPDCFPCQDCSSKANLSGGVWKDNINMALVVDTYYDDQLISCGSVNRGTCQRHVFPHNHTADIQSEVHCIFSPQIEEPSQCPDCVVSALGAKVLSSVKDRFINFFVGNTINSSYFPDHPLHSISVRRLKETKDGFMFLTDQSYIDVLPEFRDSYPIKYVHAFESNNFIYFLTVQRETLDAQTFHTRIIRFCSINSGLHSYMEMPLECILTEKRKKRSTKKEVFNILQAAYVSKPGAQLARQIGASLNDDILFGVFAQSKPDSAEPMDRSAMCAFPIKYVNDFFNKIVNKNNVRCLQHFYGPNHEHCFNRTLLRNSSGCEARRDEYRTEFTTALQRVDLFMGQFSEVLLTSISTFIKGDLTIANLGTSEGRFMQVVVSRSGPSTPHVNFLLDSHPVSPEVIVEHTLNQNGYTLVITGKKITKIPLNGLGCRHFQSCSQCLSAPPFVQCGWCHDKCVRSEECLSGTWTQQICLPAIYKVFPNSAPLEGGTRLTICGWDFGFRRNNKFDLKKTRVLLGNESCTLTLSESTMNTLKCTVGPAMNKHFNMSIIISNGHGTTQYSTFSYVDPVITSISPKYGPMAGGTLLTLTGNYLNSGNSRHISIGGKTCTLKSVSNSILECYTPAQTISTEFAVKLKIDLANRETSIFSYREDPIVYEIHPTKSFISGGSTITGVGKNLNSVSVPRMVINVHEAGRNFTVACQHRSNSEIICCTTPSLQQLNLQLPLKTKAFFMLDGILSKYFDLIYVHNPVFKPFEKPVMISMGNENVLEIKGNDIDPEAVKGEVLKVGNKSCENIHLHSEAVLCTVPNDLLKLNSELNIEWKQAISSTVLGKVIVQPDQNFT

hBAFFR-Fc = biological target: T8, hBAFFR-Fc (human, UniProt Q96RJ3); assay: direct ELISA on coated protein, IgG1
T8 construct: Fc fusion; member of the panel m9

hVCAM-Fc = biological target: T9, hVCAM-Fc; assay: direct ELISA on coated protein, IgG1
T9 construct: member of the panel m9
T9 chain: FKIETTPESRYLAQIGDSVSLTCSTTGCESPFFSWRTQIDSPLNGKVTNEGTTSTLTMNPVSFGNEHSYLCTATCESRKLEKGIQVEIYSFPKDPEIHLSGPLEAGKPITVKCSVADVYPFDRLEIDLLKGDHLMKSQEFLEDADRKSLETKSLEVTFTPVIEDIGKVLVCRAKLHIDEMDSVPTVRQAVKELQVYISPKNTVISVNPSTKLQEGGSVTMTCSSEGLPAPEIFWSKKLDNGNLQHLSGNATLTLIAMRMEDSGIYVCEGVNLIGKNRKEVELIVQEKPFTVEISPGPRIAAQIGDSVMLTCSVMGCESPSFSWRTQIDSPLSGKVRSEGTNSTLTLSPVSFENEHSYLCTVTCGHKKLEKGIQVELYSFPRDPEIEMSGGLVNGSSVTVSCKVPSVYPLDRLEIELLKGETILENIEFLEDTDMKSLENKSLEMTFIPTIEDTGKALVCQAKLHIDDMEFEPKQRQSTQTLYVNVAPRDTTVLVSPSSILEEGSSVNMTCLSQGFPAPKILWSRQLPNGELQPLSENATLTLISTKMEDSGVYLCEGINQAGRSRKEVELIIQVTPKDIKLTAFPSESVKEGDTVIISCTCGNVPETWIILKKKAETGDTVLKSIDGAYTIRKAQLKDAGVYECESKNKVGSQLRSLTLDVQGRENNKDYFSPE

T1 sequence (P36941 28-227 limits assumed): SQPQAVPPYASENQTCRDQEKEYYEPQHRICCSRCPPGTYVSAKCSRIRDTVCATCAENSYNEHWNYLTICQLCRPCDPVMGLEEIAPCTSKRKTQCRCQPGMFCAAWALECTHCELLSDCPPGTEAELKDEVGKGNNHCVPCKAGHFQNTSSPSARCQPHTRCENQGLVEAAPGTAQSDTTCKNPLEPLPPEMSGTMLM
T4 sequence (P05362 28-480 limits assumed): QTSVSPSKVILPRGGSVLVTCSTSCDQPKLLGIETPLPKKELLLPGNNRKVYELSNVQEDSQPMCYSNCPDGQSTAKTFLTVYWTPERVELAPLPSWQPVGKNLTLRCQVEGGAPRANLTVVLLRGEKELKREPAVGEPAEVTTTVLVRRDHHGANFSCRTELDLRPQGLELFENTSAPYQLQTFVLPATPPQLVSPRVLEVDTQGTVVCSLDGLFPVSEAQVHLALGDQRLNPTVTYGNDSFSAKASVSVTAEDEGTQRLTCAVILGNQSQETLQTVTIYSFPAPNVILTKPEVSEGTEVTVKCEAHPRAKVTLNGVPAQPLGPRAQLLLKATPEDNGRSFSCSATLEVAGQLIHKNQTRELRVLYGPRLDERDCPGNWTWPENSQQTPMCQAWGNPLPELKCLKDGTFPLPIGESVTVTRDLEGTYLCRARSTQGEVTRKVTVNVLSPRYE
T8 sequence (Q96RJ3 7-71 limits assumed): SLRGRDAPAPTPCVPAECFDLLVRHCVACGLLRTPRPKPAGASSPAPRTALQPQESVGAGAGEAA

binding result (hLTBR-Fc): no binding (tested: 1 µg/ml) | binding result (hDR6-Fc [1]): no binding (tested: 1 µg/ml) | binding result (hOX40-Fc): no binding (tested: 1 µg/ml) | binding result (hICAM-1-Fc): no binding (tested: 1 µg/ml)
B1: humanized h37M, human IgG1 (antibody, V domains shown)
VH: QVQLVQSGAEVKKPGASVKLSCKASGYTFTDYYINWVRQAPGKGLEWIARIYPGSGNTYYNEKFKGRATLTADKSTSTAYMQLSSLRSEDTAVYFCARGVYYFDYWGQGTTVTVSS
VL: DIVMTQSPSSLSASVGDRVTITCKASQNVRTNVAWYQQKPGKAPKALIYSASYRYSGVPDRFTGSGSGTDFTLTISSLQPEDFADYFCQQYNSYPRTFGGGTKVEIK
notes: human IgG1; terbium-labelled as the tracer of the HTRF assays; also called C-KIT-h37M; h37M-IgG1

IC50 [2]: 0.036 µg/mL | EC50 (read off the curve) [3]: ~0.1 µg/mL
B2: MH5, human IgG1 (antibody, V domains shown)
VH: QVQLVQSGAEVKKPGASVKVSCKASGYTFTDYYMNWVRQAPGQGLEWMGRIYPGSGNTYYAQKFQGRVTMTRDTSTSTVYMELSSLRSEDTAVYYCARGVYYYDYWGQGTLVTVSS
VL: DIQMTQSPSSLSASVGDRVTITCRASQGIRTNLAWFQQKPGKAPKSLIYSASSLQSGVPSRFSGSGSGTDFTLTISSLQPEDFATYYCQQYANYPRTFGGGTKVEIK
notes: IgG1; also called C-KIT-MH5; C-KIT-MHS

binding result (hDR6-Fc [4]): no binding (tested: 1 µg/ml) | binding result (hVCAM-1): no binding (tested: 1 µg/ml) | binding result (hCMET-Fc): no binding (tested: 1 µg/ml) | binding result (hBAFFR-Fc): no binding (tested: 1 µg/ml) | binding result (hVCAM-Fc): no binding (tested: 1 µg/ml)
B3: MH5.22 (antibody, IgG1, V domains shown)
VH: QVQLVQSGAEVKKPGASVKVSCKASGYTFTDFYMNWVRQAPGQGLEWMGRIYPASGNTYYAQKFQGRVTMTRDTSTSTVYMELSSLRSEDTAVYYCARGVWYYDYWGQGTLVTVSS
VL: DIQMTQSPSSLSASVGDRVTITCRASQGIRTNLAWFQQKPGKAPKSLIYAASSLQSGVPSRFSGSGSGTDFTLTISSLQPEDFATYYCQQYANYPRTFGGGTKVEIK
notes: IgG1; also called C-KIT-MH5.22
